Test [1] deals with gp120 of the HIV-1 isolate ADA (HIV-1). The test is described as follows: scFv precipitated with Protein L-Sepharose, radiolabeled ADA gp120 with and without soluble CD4, densitometry.
The target in test [2] is envelope glycoprotein of the R5-isolate ADA on pseudotyped HIV-1 (HIV-1). The test is described as follows: cell-based or functional assay.

The source of these data is patent US20040192609A1.

For 17b scFv, the enhancement of binding to gp120 by soluble CD4 in test [1] is greater than 2 fold. Same read-out and setting: under 47e scFv (wt) stands greater than 2 fold; under 412d scFv (wt), greater than 2 fold.

In turn, CD4 binding site antibody F105 showed an EC50 of neutralization of ADA virus in test [2] of 0.2 to 0.5 µg/mL. For the substance E51 scFv, the increase of binding to gp120 in the presence of CD4 in test [1] came out at 40%. Take antibody 17b: in test [2], the EC50 of neutralization of ADA virus is greater than 2 µg/mL.

Take antibody 412d: the EC50 of neutralization of ADA virus in test [2] was in the range of 0.2 to 0.5 µg/mL. The same measure, in the same setting: under antibody E51 stands less than 0.05 µg/mL.
